Laboratory results from the supplement of paper PMC10567573.

B1: ANKRD17 (parent)
chain: EMVRFLLEAGADQEHKTDEMHTAL

Variants of: B1
Experiment: protein stability index of a GFP-peptide fusion (GPS, HEK-293T) (PSI 1-6); higher = more stable
Conditions: c terminus: a fixed tail appended
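Further: lentivirally expressed fusions sorted by FACS into six bins by GFP to DsRed ratio, PSI derived from sequencing read proportions per bin multiplied by bin number.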

Variant | protein stability index
EMVRFLLEAGADQEHKTDRMHTAL [E19R] | 2.7
EMVRFLLEAGADQEHKTDKMHTAL [E19K] | 1.91
EMVRFLLEAGADQEHKTDQMHTAL [E19Q] | 1.92
EMVRFLLEAGADQEHKTDEMHRAL [T22R] | 2.5
EMVRFLLEAGADQEHKTDEMHGAL [T22G] | 3.23
EMVRFLLEAGDDQEHKTDEMHTAL [A11D] | 3.21
EMVDFLLEAGADQEHKTDEMHTAL [R4D] | 4.17
EMVKFLLEAGADQEHKTDEMHTAL [R4K] | 3.22
EMVLFLLEAGADQEHKTDEMHTAL [R4L] | 2.35
EMVYFLLEAGADQEHKTDEMHTAL [R4Y] | 2.35
EMVGFLLEAGADQEHKTDEMHTAL [R4G] | 3.86
EMVRFLLEAGADQEHKTDEMATAL [H21A] | 3.24
EMVRFLLEAGADQEHKTDEMITAL [H21I] | 2.55
EMVRFLLEAGADQEHKTDEMLTAL [H21L] | 2.66
EMVRFLLEAGADQEHKTDEMFTAL [H21F] | 2.19
EMVRFLLEAGADQEHKTDEMQTAL [H21Q] | 3.55
EMVRFLLEAGADQEHKTDEMETAL [H21E] | 2.89
EMVRFLLEAGADQEHKTDEGHTAL [M20G] | 3.12
EMVRFLLEAGADQEHKTDEPHTAL [M20P] | 3.21
EMVRFLLEAGADQEHKTDEEHTAL [M20E] | 2.94
EMVRFLLEAGADQEHKTDEAHTAL [M20A] | 3.04
EMVRYLLEAGADQEHKTDEMHTAL [F5Y] | 2.25
EMVRRLLEAGADQEHKTDEMHTAL [F5R] | 3.77
EMVRPLLEAGADQEHKTDEMHTAL [F5P] | 4.91

Variant | protein stability index
EMVRILLEAGADQEHKTDEMHTAL [F5I] | 2.88
EMVRMLLEAGADQEHKTDEMHTAL [F5M] | 2.87
EMVRFLLEAEADQEHKTDEMHTAL [G10E] | 3.32
EMVRFLLEAKADQEHKTDEMHTAL [G10K] | 2.57
EMVRFLLEANADQEHKTDEMHTAL [G10N] | 2.82
EMVRFLLEWGADQEHKTDEMHTAL [A9W] | 1.89
EMVRFLLESGADQEHKTDEMHTAL [A9S] | 2.96
EMVRFLLENGADQEHKTDEMHTAL [A9N] | 2.92
EMVRFLLEAGADQEHKEDEMHTAL [T17E] | 2.99
EMVRFLLEAGADQEHKGDEMHTAL [T17G] | 2.94
EMVRFLLEAGADQEHKKDEMHTAL [T17K] | 3.12
EMVRFLLEAGADQEHKRDEMHTAL [T17R] | 2.68
EMVRFLLEAGADQEHKPDEMHTAL [T17P] | 3.17
EMVRFLLEAGADQEHKTSEMHTAL [D18S] | 2.73
EMVRFLLRAGADQEHKTDEMHTAL [E8R] | 2.03
EMVRFLLVAGADQEHKTDEMHTAL [E8V] | 1.89
EMVRFLLFAGADQEHKTDEMHTAL [E8F] | 1.94
EMVRFLLGAGADQEHKTDEMHTAL [E8G] | 2.08
EMVRFLLHAGADQEHKTDEMHTAL [E8H] | 2.43
EMVRFFLEAGADQEHKTDEMHTAL [L6F] | 3.08
EMVRFHLEAGADQEHKTDEMHTAL [L6H] | 4.42
EMVRFRLEAGADQEHKTDEMHTAL [L6R] | 4.55
EMVRFDLEAGADQEHKTDEMHTAL [L6D] | 5.47
EMVRFVLEAGADQEHKTDEMHTAL [L6V] | 3.51

Variant | protein stability index
EMVRFLLEAGADQECKTDEMHTAL [H15C] | 3.16
EMVRFLLEAGADQEQKTDEMHTAL [H15Q] | 3
EMVRFLLEAGADQEAKTDEMHTAL [H15A] | 2.76
EMVRFLLEAGADQEFKTDEMHTAL [H15F] | 1.94
EMVRFLLEAGADQHHKTDEMHTAL [E14H] | 2.01
EMVRFLLEAGADQSHKTDEMHTAL [E14S] | 2.15
EMVRFLLEAGADQNHKTDEMHTAL [E14N] | 1.95
EMVRFLLEAGADQLHKTDEMHTAL [E14L] | 1.79
EMVRFLLEAGADQYHKTDEMHTAL [E14Y] | 1.44
EMVRFLLEAGADQWHKTDEMHTAL [E14W] | 1.67
EMVRFLLEAGADQIHKTDEMHTAL [E14I] | 1.28
EMVRFLLEAGADSEHKTDEMHTAL [Q13S] | 2.94
EMVRFLLEAGADWEHKTDEMHTAL [Q13W] | 2.27
EMVRFLLEAGADLEHKTDEMHTAL [Q13L] | 2.03
EMVRFLLEAGADEEHKTDEMHTAL [Q13E] | 2.79
EMVRFLLEAGADDEHKTDEMHTAL [Q13D] | 3.77
WMVRFLLEAGADQEHKTDEMHTAL [E1W] | 2.05
AMVRFLLEAGADQEHKTDEMHTAL [E1A] | 2.3
KMVRFLLEAGADQEHKTDEMHTAL [E1K] | 2.48
EMVRFLLEAGADQEHFTDEMHTAL [K16F] | 3
EMVRFLLEAGADQEHATDEMHTAL [K16A] | 3.16
EMVRFLLEAGADQEHITDEMHTAL [K16I] | 2.72
EMVRFLLEAGADQEHQTDEMHTAL [K16Q] | 2.53
EMVRFLLEAGADQEHDTDEMHTAL [K16D] | 3.54

Variant | protein stability index
EMVRFLLEAGANQEHKTDEMHTAL [D12N] | 2.17
EMVRFLLEAGASQEHKTDEMHTAL [D12S] | 2.29
EMVRFLLEAGAWQEHKTDEMHTAL [D12W] | 1.43
EMVRFLLEAGAYQEHKTDEMHTAL [D12Y] | 1.89
EMVRFLLEAGAIQEHKTDEMHTAL [D12I] | 1.62
EMVRFLLEAGAGQEHKTDEMHTAL [D12G] | 1.96
EMVRFLLEAGADQEHKTDEMHTSL [A23S] | 3.05
EMVRFLLEAGADQEHKTDEMHTCL [A23C] | 2.49
EMVRFLLEAGADQEHKTDEMHTAD [L24D] | 4.06
EMVRFLLEAGADQEHKTDEMHTAI [L24I] | 2.31
EMVRFLLEAGADQEHKTDEMHTAK [L24K] | 3.3
EMVRFLLEAGADQEHKTDEMHTAQ [L24Q] | 3.14
EMVRFLLEAGADQEHKTDEMHTAH [L24H] | 2.78
EMVRFLLEAGADQEHKTDEMHTAR [L24R] | 2.72
EQVRFLLEAGADQEHKTDEMHTAL [M2Q] | 4.64
EEVRFLLEAGADQEHKTDEMHTAL [M2E] | 4.73
EKVRFLLEAGADQEHKTDEMHTAL [M2K] | 4.64
EHVRFLLEAGADQEHKTDEMHTAL [M2H] | 4.21
EMPRFLLEAGADQEHKTDEMHTAL [V3P] | 4.83
EMWRFLLEAGADQEHKTDEMHTAL [V3W] | 2.65
EMQRFLLEAGADQEHKTDEMHTAL [V3Q] | 4.44
EMCRFLLEAGADQEHKTDEMHTAL [V3C] | 3.84
